Consider 5 molecules from PMC10281000 (Chembiochem : a European journal of chemical biology, 2021).

In one data set the test system is Bpro0530. The following applies: 100 mM Tris-SO4, pH 8.5, 30 °C; defluorination.
The next data set addresses Rha0230 (Rhodococcus jostii, UniProt Q0SK70). To be noted: 100 mM Tris-SO4, pH 8.5, 30 °C; defluorination.
The target in the next data set is ST2570 (Sulfurisphaera tokodaii, UniProt Q96XE7). To be noted: 100 mM Tris-SO4, pH 8.5, 30 °C; defluorination.
The next data set relates to O=C(O)CCl. Nature of the data set: purified protein. To be noted: pH 8.5; 30.0 °C.
The data set “crystal structure” concerns the molecule itself. The data set can be described thus: crystal structure.

Regarding `O=C(O)CF` [fluoroacetate], the Km (commonly the concentration of substrate that gives half-maximal velocity) in the data set with Bpro0530 was 20.3 ± 0.3 mM; on Rha0230, 18 ± 3 mM; at ST2570, 2.4 ± 0.7 mM.
On to Rha0230 (Rhodococcus jostii RHA1), for which, in the data set on O=C(O)CCl, the Km amounted to 18 ± 2 mM and the kcat/Km (in general, the turnover number divided by the Michaelis constant) came to 37 ± 6 M⁻¹ s⁻¹.
Rha0230 (Rhodococcus jostii RHA1; Y61F): in the data set on O=C(O)CCl, the Km came out at 14 ± 2 mM and the kcat/Km was 73 ± 13 M⁻¹ s⁻¹.
For ST2570 (Sulfurisphaera tokodaii str. 7), in the data set on O=C(O)CCl, the Km is 0.00353 ± 3e-05 mM and the specificity constant (kcat/Km) turned out to be 73000 ± 1100 M⁻¹ s⁻¹.

B1: PA0810, L-2-haloacid dehalogenase from Pseudomonas aeruginosa PAO1 (enzyme)
chain: MRAILFDVFGTLVDWRSSLIEQFQALERELGGTLPCVELTDRWRQQYKPAMDRVRNGQAPWQHLDQLHRQSLEALAGEFGLALDEALLQRITGFWHRLRPWPDTLAGMHALKADYWLAALSNGNTALMLDVARHAGLPWDMLLCADLFGHYKPDPQVYLGACRLLDLPPQEVMLCAAHNYDLKAARALGLKTAFIARPLEYGPGQSQDLAAEQDWDLIASDLLDLHRQLAASA
Take B1: the binding result in the data set “crystal structure” is listed as “binds”.
